Ends that are not written are not given here.
Target: Ac-KE7 (Homo sapiens, UniProt P05067)
Test: Rheology of Ac-KE7 mixed with inhibitor (storage modulus, gel vs solution)
Format: physicochemical
Conditions: 1.5 mM Ac-KE7 mixed with inhibitor in 1:20 molar ratio, 25° C.
Text: Rheology. To determine the viscoelastic properties/behaviour, peptide-based hydrogels were subjected to dynamic time, strain and frequency sweep experiments using the ARES-G2 rheometer (TA Instruments, Piscataway, N.J.) with a 25.0 mm diameter stainless steel or titanium parallel plate geometry and a 0.8 mm or 1-2 mm gap distance. To ensure complete gelation and take account of the varying gelation speeds of different peptides at different concentrations, the rheology measurements were done 2 months after sample preparation. Oscillatory frequency sweep studies (measuring storage modulus (G′) vs. Angular frequency (ω)) were done at 0.1-100 rad/s using 1% strain. Oscillatory amplitude sweep studies (measuring storage modulus (G′) vs. oscillation strain % (γ)) were done using 0.01-100% strain with a constant angular frequency of 1 rad/s. All measurements were carried out at 25° C. […] The graphs display the storage moduli (G′ in Pa) as a function of (A) angular frequency (rad/sec) under 1% strain and (B) oscillation strain (%) at an angular frequency of 1 rad/sec at room temperature of 25° C. […] This can be seen from the rheological data, where the peptide-inhibitor solutions give a highly fluctuating curve for both the amplitude and frequency sweep measurements because they are in solution form; instead of a gel form.

## Ac-LPE (Ac-Leu-Pro-Glu) [N-acetylated tripeptide Leu-Pro-Glu]
  hydrogel formation of Ac-KE7 (rheology): no gelation

## Ac-LPG (Ac-Leu-Pro-Gly) [N-acetylated tripeptide Leu-Pro-Gly]
  hydrogel formation of Ac-KE7 (rheology): no gelation

Reference: patent US20140256625A1, “ANTI-AMYLOIDOGENIC, ALPHA-HELIX BREAKING ULTRA-SMALL PEPTIDE THERAPEUTICS” (AGENCY FOR SCIENCE, TECHNOLOGY AND RESEARCH, priority 2011, published 2014)
